According to publication PMC4414150, “Zfra activates memory Hyal-2+ CD3− CD19− spleen cells to block cancer growth, stemness, and metastasis in vivo” (Oncotarget, 2015):

Molecular target: T1, Zfra16–31
T1 construct: Zfra, residues 16-31; also called Zfra peptide of amino acid #16–31; source: synthetic peptide (manual synthesis, Genemed Synthesis)
T1 peptide: FRAHTQKNAATPFLAN
Assay: SDS-PAGE of the incubated peptide (ladder of polymers); peptides alone (2 mM in 100 μl PBS) or mixed together, room temperature, 24 hr (legend; the text says sterile MilliQ water, 48 hr); non-reducing and reducing gels; less polymerization in MilliQ water
Conditions: both partners purified

- binding result: binds
B1: Zfra1–15 (peptide)
peptide: MSSRRSSSCKYCEQD
notes: Zfra, residues 1-15; also called Zfra peptide of amino acid #1–15; source: synthetic peptide (manual synthesis, Genemed Synthesis)
